Our source for the percent of target cells bound values is PMC6333426.

The assay has as its target Tsx nucleoside transporter of E. coli, on target cells (E. coli) (UniProt P0A927). Description: flow cytometry on cells.
Sequence of UniProt P0A927 (P0A927 23-294): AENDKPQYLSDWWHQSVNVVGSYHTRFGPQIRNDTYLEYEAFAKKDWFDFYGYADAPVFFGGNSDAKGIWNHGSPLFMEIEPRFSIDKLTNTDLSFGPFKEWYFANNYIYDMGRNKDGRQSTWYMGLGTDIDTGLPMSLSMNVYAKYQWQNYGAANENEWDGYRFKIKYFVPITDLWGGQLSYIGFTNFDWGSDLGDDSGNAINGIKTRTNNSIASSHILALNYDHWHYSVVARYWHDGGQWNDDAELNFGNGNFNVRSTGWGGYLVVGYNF

“CdiA^STECO31 (CdiA from Escherichia coli STEC_O31), wild type, A0A1S4NYE3 33-3253”: the percent of target cells bound amounted to 80%.
